Results as given in publication PMC3032713.

Biological target: RBSDV P9-1 as used in vitro (data not shown) (Rice black-streaked dwarf virus)
Assay: not stated; P9-1 dimers in vitro; data not shown

Q: How did the stoichiometry N turn out when “RBSDV P9-1 as used in vitro (data not shown) (natural protein)” was run?
A: 2
